Sequences and labels used below:
B1: mRNA-splicing (parent)
chain: AGUUGCUGCUGGGAGCUCCAGCACAGUGAAAUGGACAGAAGGGCAGAGCAA

This series covers variants of B1. As to the kind of experiment: exon inclusion enrichment index; higher = more inclusion; WT1 exon 5 minigene, HEK293.
For the variant G5C C6U G8A U10C, the “exon inclusion enrichment index” value turned out to be 1.18.

On to G5C C6U G8A U10A, for which the “exon inclusion enrichment index” value came to 0.0597. With G5C C6U G8C C9U U10C A23G, the “exon inclusion enrichment index” value was determined as 2.93.

Regarding G5C C6U G8C C9U U10C A23C, the “exon inclusion enrichment index” value was 1.9. Regarding G5C C6U G8C C9U U10C A23U, the “exon inclusion enrichment index” value turned out to be 1.39. To G5C C6U G8C C9U U10C A35G C36A belongs 1.07. With G5C C6U G8C C9U U10C A35G C36U, the “exon inclusion enrichment index” value amounted to 0.016. Take G5C C6U G8C C9U U10C A35G C36G: the “exon inclusion enrichment index” value came out at 0.14.

Turning to G5C C6U G8C C9U U10C A35C C36A, the “exon inclusion enrichment index” value turned out to be 1.37. To G5C C6U G8C C9U U10C A35C C36G belongs 1.57.

Regarding G5C C6U G8C C9U U10C A35C C36U, the “exon inclusion enrichment index” value is 0.258. Consider G5C C6U G8C C9U U10C A40C G41A, for which the “exon inclusion enrichment index” value was found to be 0.768. In the case of G5C C6U G8C C9U U10C A40C G41U, the “exon inclusion enrichment index” value turned out to be 0.895. Regarding G5C C6U G8C C9U U10C A40C G41C, the “exon inclusion enrichment index” value was determined as 2.97.

For G5C C6U G8A C9G U10C, the “exon inclusion enrichment index” value is 0.184. Take G5C C6U G8C C9U U10C A31C: the “exon inclusion enrichment index” value amounted to 2.29. With G5C C6U G8C C9U U10C A31G, the “exon inclusion enrichment index” value came to 2.47. G5C C6U G8C C9U U10C A31U: the “exon inclusion enrichment index” value was found to be 1.74. The figure for G5C C6U G8C C9A U10A is 1.21; for G5C C6U G8C C9A U10C it is 2.36. As to G5C C6U G8C C9A U10G, the “exon inclusion enrichment index” value came out at 0.812. Consider G5C C6U G8C C9U U10C A39G A40C, for which the “exon inclusion enrichment index” value is 1.79.

For the variant G5C C6U G8C C9U U10C A39G A40G, the “exon inclusion enrichment index” value is 0.186. Turning to G5C C6U G8C C9U U10C A39G A40U, the “exon inclusion enrichment index” value is 0.232. Turning to G5C C6U G8A C9U U10C, the “exon inclusion enrichment index” value came to 0.941. With G5C C6G U7G G8C U10C, the “exon inclusion enrichment index” value was determined as 1.57. Take G5C C6G U7G G8A U10A: the “exon inclusion enrichment index” value turned out to be 0.218.

As to G5C C6G U7G G8A U10C, the “exon inclusion enrichment index” value is 2.87. As for G5C C6U G8C C9U U10C A30U A31G, the “exon inclusion enrichment index” value came out at 2.12.

With G5C C6U G8C C9U U10C A30U A31U, the “exon inclusion enrichment index” value was found to be 1.52. G5C C6U G8C C9U U10C A30U A31C: the “exon inclusion enrichment index” value came out at 1.95. The figure for G5C C6U G8C C9U U10C A30G A31C is 0.276; for G5C C6U G8C C9U U10C A30G A31U it is 0.63; for G5C C6U G8C C9U U10C A30G A31G it is 0.469. Regarding G5C C6G U10C, the “exon inclusion enrichment index” value is 2.11. Turning to G5C C6U G8C C9U U10C A39U A40U, the “exon inclusion enrichment index” value was found to be 0.67. Regarding G5C C6U G8C C9U U10C A39U A40G, the “exon inclusion enrichment index” value amounted to 0.572. For the variant G5C C6U G8C C9U U10C A39U A40C, the “exon inclusion enrichment index” value was determined as 2.16.

For the variant G5C C6U G8C C9U U10C A37C G38C, the “exon inclusion enrichment index” value is 1.95. In the case of G5C C6U G8C C9U U10C A37C G38U, the “exon inclusion enrichment index” value amounted to 1.2. With G5C C6U G8C C9U U10C A37C G38A, the “exon inclusion enrichment index” value turned out to be 1.63.

For G5C C6G U7C U10G G11A, the “exon inclusion enrichment index” value is 2.98. Take G5C C6G U7C U10G G11U: the “exon inclusion enrichment index” value is 2.66. Consider G5C C6G U7C U10G G11C, for which the “exon inclusion enrichment index” value came out at 2.32. For the variant G5C C6U G8C C9U U10C A20C G21C, the “exon inclusion enrichment index” value turned out to be 0.524.

With G5C C6U G8C C9U U10C A20C G21A, the “exon inclusion enrichment index” value is 0.599. As to G5C C6U G8C C9U U10C A20C G21U, the “exon inclusion enrichment index” value came out at 0.926.

Regarding G5C C6U G8C C9U U10C A20G G21A, the “exon inclusion enrichment index” value is 2.38. Turning to G5C C6U G8C C9U U10C A20G G21C, the “exon inclusion enrichment index” value was 1.71.

G5C C6U G8C C9U U10C A20G G21U: the “exon inclusion enrichment index” value is 2.01. For the variant G5C C6U G8C C9G U10C, the “exon inclusion enrichment index” value was determined as 3.48. As for G5C C6U G8C C9G U10A, the “exon inclusion enrichment index” value worked out at 3.12. Regarding G5C C6U G8C C9G U10G, the “exon inclusion enrichment index” value was determined as 3.42. With G5C C6U G8C C9U U10C A25G G26A, the “exon inclusion enrichment index” value was 4.14.

With G5C C6U G8C C9U U10C A25G G26C, the “exon inclusion enrichment index” value amounted to 3.56. As to G5C C6U G8C C9U U10C A25G G26U, the “exon inclusion enrichment index” value was found to be 2.71.

With G5C C6U G8C C9U U10C A20U G21C, the “exon inclusion enrichment index” value amounted to 1.62. For G5C C6U G8C C9U U10C A20U G21U, the “exon inclusion enrichment index” value stood at 1.12. G5C C6U G8C C9U U10C A20U G21A: the “exon inclusion enrichment index” value was found to be 0.91. Turning to G5C C6U C9U U10C, the “exon inclusion enrichment index” value was 1.13. Consider G5C C6U G8C C9U U10C A30C, for which the “exon inclusion enrichment index” value is 2.23. As for G5C C6U G8C C9U U10C A30G, the “exon inclusion enrichment index” value came out at 2.12. Turning to G5C C6U G8C C9U U10C A30U, the “exon inclusion enrichment index” value turned out to be 1.34.

For the variant G5C C6U C9G U10C, the “exon inclusion enrichment index” value is 1.31. G5C C6U G8C C9U U10C A37U G38A: the “exon inclusion enrichment index” value was found to be 0.713.

Regarding G5C C6U G8C C9U U10C A37U G38C, the “exon inclusion enrichment index” value turned out to be 1.03. Take G5C C6U G8C C9U U10C A37U G38U: the “exon inclusion enrichment index” value was found to be 0.446. To G5C C6U G8C C9U U10C A23G C24U belongs 0.696; to G5C C6U G8C C9U U10C A23G C24G, 3.51.

Take G5C C6U G8C C9U U10C A23G C24A: the “exon inclusion enrichment index” value is 3.38. As to G5C C6U G8C C9U U10C A14C G15C, the “exon inclusion enrichment index” value stood at 0.406. On to G5C C6U G8C C9U U10C A14C G15U, for which the “exon inclusion enrichment index” value came to 0.523. The figure for G5C C6U G8C C9U U10C A14C G15A is 0.459; for G5C C6U G8C C9U U10C A29U it is 0.63. To G5C C6U G8C C9U U10C A29C belongs 1.75. On to G5C C6U G8C C9U U10C A29G, for which the “exon inclusion enrichment index” value is 2.54. In the case of G5C C6U G8C C9U U10C A31U U32A, the “exon inclusion enrichment index” value stood at 0.179.

With G5C C6U G8C C9U U10C A31U U32C, the “exon inclusion enrichment index” value amounted to 2.61.

Regarding G5C C6U G8C C9U U10C A31U U32G, the “exon inclusion enrichment index” value turned out to be 1.04. Turning to G5C C6U C9A U10C, the “exon inclusion enrichment index” value was determined as 1.69.

As to G5C C6U, the “exon inclusion enrichment index” value was 0.0627. The figure for G5C C6U G8C C9U U10C A23U C24G is 2.38. For G5C C6U G8C C9U U10C A23U C24U, the “exon inclusion enrichment index” value turned out to be 0.198. G5C C6U G8C C9U U10C A23U C24A: the “exon inclusion enrichment index” value amounted to 0.79.

(Values after the RNAGym collection of RNA variant scans (doi:10.1101/gr.219683.116).)
